Reference: US20060134709A1

Key:
soluble FcγRIIB (human) = soluble FcγRIIB (human) (UniProt P31994); test: ELISA
[1] = target: soluble monomeric FcγRIIIA-linker-AVITAG (human) (UniProt P08637); test: ELISA
[2] = target: FcγRIIB-Fc fusion protein (human) (UniProt P31994); test: BIAcore
[3] = target: soluble monomeric FcγRIIIA-linker-AVITAG (human) (UniProt P08637); test: BIAcore

Substance | fold increase vs wt (soluble FcγRIIB (human)) [x] | fold increase vs wt [1] [x] | also measured
ch4-4-20 P291S, P353Q (antibody) | – | – | fold decrease vs wt (soluble FcγRIIB (human)): 0.25 x; fold decrease vs wt [1]: 0.5 x
ch4-4-20 P343S, P353L, S375I, S383N (antibody) | 6 | 0.5 | –
ch4-4-20 Q419H, P396L (antibody) | 6.9 | 2 | –
ch4-4-20 R255L, P396L (antibody) | 6 | 1.8 | –
ch4-4-20 R292G (antibody) | – | – | Koff WT/Mut [2]: 0.67
ch4-4-20 R301H, K340E, D399E (antibody) | – | – | fold decrease vs wt (soluble FcγRIIB (human)): 0.25 x; fold decrease vs wt [1]: 0.5 x
ch4-4-20 S298N, K360R, N361D (antibody) | – | – | Koff WT/Mut [2]: 0.67
ch4-4-20 S375C, P396L (antibody) | 4.5 | 1.5 | –
ch4-4-20 S400P (antibody) | 6 | 1 | –
ch4-4-20 S407I (antibody) | 4 | 0.5 | –
ch4-4-20 S408I, V215I, V125L (antibody) | 0.75 | 0.5 | –
ch4-4-20 S415I, L251F (antibody) | 0.75 | 0.5 | –
ch4-4-20 T215P, K274N, A287G, K334N, L365V, P396L (antibody) | 4 | 2 | –
ch4-4-20 T225S (antibody) | – | – | fold decrease vs wt (soluble FcγRIIB (human)): 0.5 x; fold decrease vs wt [1]: 0.25 x
ch4-4-20 T250S, P396L (antibody) | 6.8 | 1.5 | –
ch4-4-20 V215I, K290V, P396L (antibody) | 4.6 | 2.2 | –
ch4-4-20 V240I, V281M (antibody) | – | – | fold decrease vs wt (soluble FcγRIIB (human)): 0.25 x; fold decrease vs wt [1]: 0.25 x
ch4-4-20 V303I, P396L (antibody) | 4 | 1.1 | –
ch4-4-20 V323I, P396L (antibody) | 8.2 | 1.1 | –
ch4-4-20 V348M, K334N, F275I, Y202M, K147T (antibody) | 0.75 | 0.5 | –
ch4-4-20 V379M (antibody) | – | – | Kd [3]: 160 nM
ch4-4-20 V427A, P396L (antibody) | 4.7 | 1.9 | –
ch4-4-20 Y319F, P352L, P396L (antibody) | – | – | Kd [2]: 55.7 nM; Kd [3]: 125 nM

Further lines, with some results ahead:

fold increase vs wt (soluble FcγRIIB (human)) [x] | fold increase vs wt [1] [x] | Substance | also measured
2.5 | 3 | ch4-4-20 P247L, I253N, K334N (antibody) | –
– | 3 | ch4-4-20 P247L, N421K (antibody) | fold vs wt [1]: 3 X; Kd [2]: 66 nM; koff [2]: 0.065 s⁻¹; Kd [3]: 62 nM; koff [3]: 0.108 s⁻¹
4.2 | 1.2 | ch4-4-20 P247S, P396L (antibody) | –
6.1 | 2.2 | ch4-4-20 Q419L, P396L (antibody) | –
7 | 0.5 | ch4-4-20 S298N, S407R (antibody) | –
4.7 | 1.5 | ch4-4-20 S400F, P396L (antibody) | –
6 | 0.25 | ch4-4-20 T223I, T256S, L406F (antibody) | –
4.2 | 1.3 | ch4-4-20 V240A, P396L (antibody) | –
10.8 | 1.3 | ch4-4-20 V273I, K326E, L328I, P396L (antibody) | –
7 | 0.5 | ch4-4-20 V282E, V369I, L406F (antibody) | –
5.5 | 1.3 | ch4-4-20 V305L, P396L (antibody) | –
5.6 | 1.9 | ch4-4-20 V379M, P396L (antibody) | –
